Data taken from publication doi:10.1101/2020.07.24.219675.
pKd: −log10 of the molar value.

Biological target: sapC-PUMA (protein chimera of saposin C and the BH3 domain of PUMA)
Assay: NMR titration

## Bcl-xL-ΔTM (Bcl-xL without the transmembrane domain) (domain or fragment)
  pKd: > 6.51
  koff: < 310 s⁻¹
  stoichiometry N: 1
